Assay results from the supplement of paper PMC7877785.
± gives the uncertainty stated by the source.

Experiment: self-splicing fitness, log relative to wild type (ln ratio); higher = more splicing; Tetrahymena group I intron in knt gene, E. coli kanamycin selection, DiMSum; sequences stand for … in CUCUCU…GGAGGGAAAAGUUAUCAGGCAUGCACCUGGUAGCUAGUCUUUAAACCAAUAGAUUGCAUCGGUUUAAAAGGCAAGACCGUCAAAUUGCGGGAAAGGGGUCAACAGCCGUUCAGUACCAAGUCUCAGGGGAAACUUUGAGAUGGCCUUGCAAAGGGUAUGGUAAUAAGCUGACGGACAUGGUCCUAACCACGCAGCCAAGUCCUAAGUCAACAGAUCUUCUGUUGAUAUGGAUGCAGUUCACAGACUAAAUGUCGGUCGGGGAAGAUGUAUUCUUCUCAUAAGAUAUAGUCGGACCUCUCCUUAAUGGGAGCUAGCGGAUGAAGUGAUGCAACACUGGAGCCGCUGGGAACUAAUUUGUAUGCGAAAGUAUAUUGAUUAGUUUUGGAGUACUCGUGGUCG
Method in brief: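 Pooled colonies went to amplicon sequencing on an Illumina HiSeq 2500 after six replicate transformations. The plates were LB agar with 100 μg/mL carbenicillin, 50 μM IPTG and 0.2% rhamnose, with or without 25 μg/mL kanamycin, incubated overnight at 37°C or 30°C. The E. coli BL21(DE3) library had all eight P1ex-region intron nucleotides randomised, the intron placed in the knt kanamycin-resistance gene on pET-22b(+). DiMSum fitness is the error-weighted combination of replicate fold changes, kanamycin against none, normalised to wild type.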

Sequence	self-splicing fitness (ln) (30 °C)	self-splicing fitness (ln) (37 °C)
UGCCAGCAAUAUUACGAAAG	-2.78 ± 0.13	-1.4 ± 0.15
UGCCAGCAAUAUUACGACUU	-2.97 ± 0.14	-1.46 ± 0.13
UGCCAGCAAUAUUACGAGCU	-1.17 ± 0.075	-0.631 ± 0.098
UGCCAGCAAUAUUACGAUCC	-3.25 ± 0.29	-1.11 ± 0.42
UGCCAGCAAUAUUACGAUGC	-3.57 ± 0.17	-2.35 ± 0.21
UGCCAGCAAUAUUACGAUGG	-3.49 ± 0.2	-2.16 ± 0.18
UGCCAGCAAUAUUACGCACG	-1.48 ± 0.2	-0.233 ± 0.14
UGCCAGCAAUAUUACGCAGG	-4.43 ± 0.33	-3.14 ± 0.28
UGCCAGCAAUAUUACGCCAC		-2.54 ± 0.29
UGCCAGCAAUAUUACGCCCA	0.23 ± 0.099	-0.149 ± 0.13
UGCCAGCAAUAUUACGCGAG	-3.22 ± 0.17	-2.92 ± 0.21
UGCCAGCAAUAUUACGCGCU	-1.3 ± 0.12	-0.531 ± 0.17
UGCCAGCAAUAUUACGCGGC		-1.85 ± 0.35
UGCCAGCAAUAUUACGCUCA	-0.505 ± 0.061	-0.207 ± 0.07
UGCCAGCAAUAUUACGCUCU	-1.42 ± 0.079	0.293 ± 0.098
UGCCAGCAAUAUUACGGGGC	-3.04 ± 0.16	-1.74 ± 0.17
UGCCAGCAAUAUUACGGGGG	-3.83 ± 0.17	-2.9 ± 0.17
UGCCAGCAAUAUUACGGGUA	-2.25 ± 0.15	-1.24 ± 0.15
UGCCAGCAAUAUUACGGUCA	-0.926 ± 0.081	-0.0439 ± 0.092
UGCCAGCAAUAUUACGUCUU	-2.22 ± 0.18	-1.86 ± 0.21
UGCCAGCAAUAUUACGUGCA	-2.55 ± 0.1	-1.53 ± 0.12

Sequence	self-splicing fitness (ln) (30 °C)	self-splicing fitness (ln) (37 °C)
UGCCAGCAAUAUUACGUGGA	-3.33 ± 0.18	-1.71 ± 0.13
UGCCAGCAAUAUUACGUGUG	-1.49 ± 0.052	-1.14 ± 0.071
UGCCAGCAAUAUUACGUUCC	-1.31 ± 0.31	-2.25 ± 0.3
UGCGAGCAAUAUUACGAGCG	-2.92 ± 0.33	-2.07 ± 0.3
UGCGAGCAAUAUUACGAUAC	-2.68 ± 0.28	-1.45 ± 0.32
UGCGAGCAAUAUUACGAUCC		-2.04 ± 0.46
UGCGAGCAAUAUUACGAUCU	-1.84 ± 0.21	-1.06 ± 0.16
UGCGAGCAAUAUUACGAUGG	-3.43 ± 0.2	-1.93 ± 0.17
UGCGAGCAAUAUUACGAUUA	-1.56 ± 0.13	-1.1 ± 0.11
UGCGAGCAAUAUUACGCCUC	-2.78 ± 0.43	
UGCGAGCAAUAUUACGCUUU	-2.38 ± 0.15	-3.02 ± 0.28
UGCGAGCAAUAUUACGGAAA	-3.19 ± 0.33	-2.55 ± 0.3
UGCGAGCAAUAUUACGGAGG		-1.17 ± 0.18
UGCGAGCAAUAUUACGGGAA	-3.87 ± 0.38	-2.5 ± 0.24
UGCGAGCAAUAUUACGGGCC	-2.91 ± 0.28	-1.54 ± 0.21
UGCGAGCAAUAUUACGGUAA	-2.4 ± 0.17	-2.22 ± 0.16
UGCGAGCAAUAUUACGUACC	-2.77 ± 0.14	-2.75 ± 0.25
UGCGAGCAAUAUUACGUACU	-2.58 ± 0.24	-1.23 ± 0.22
UGCGAGCAAUAUUACGUAGA		-0.382 ± 0.22
UGCGAGCAAUAUUACGUCAA		-0.906 ± 0.35
